Reference: article PMC8566583
Several values for one entry are separate records, joined by “and”; a condition that tells them apart may be missing. Identical values can stand only once.

Key:
PARP1 (Homo sapiens) = PARP1 (Homo sapiens) (UniProt P09874); conditions: cited from earlier work
PARP2 (Homo sapiens) = PARP2 (Homo sapiens) (UniProt Q9UGN5); conditions: cited from earlier work
[1] = target: Recombinant wild-type human PARP1 (human) (UniProt P09874)
[2] = target: Recombinant wild-type murine PARP2 (murine) (UniProt O88554)
UniProt O88554, sequence (O88554 whole entry): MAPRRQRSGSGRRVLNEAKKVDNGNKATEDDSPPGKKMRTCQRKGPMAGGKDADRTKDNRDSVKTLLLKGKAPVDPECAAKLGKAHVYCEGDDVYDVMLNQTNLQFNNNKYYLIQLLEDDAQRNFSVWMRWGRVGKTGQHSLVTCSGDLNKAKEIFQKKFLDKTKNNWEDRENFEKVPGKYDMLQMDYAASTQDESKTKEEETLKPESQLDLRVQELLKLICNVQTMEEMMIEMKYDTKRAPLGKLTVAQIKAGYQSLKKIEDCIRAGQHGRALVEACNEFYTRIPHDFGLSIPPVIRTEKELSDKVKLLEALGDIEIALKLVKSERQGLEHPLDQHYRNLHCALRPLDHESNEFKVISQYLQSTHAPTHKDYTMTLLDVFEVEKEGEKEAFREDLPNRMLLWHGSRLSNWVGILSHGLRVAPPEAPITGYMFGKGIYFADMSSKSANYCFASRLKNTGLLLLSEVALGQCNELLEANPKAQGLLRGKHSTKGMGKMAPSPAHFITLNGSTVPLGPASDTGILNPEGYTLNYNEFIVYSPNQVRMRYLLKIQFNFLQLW

UniProt Q9UGN5, sequence (Q9UGN5 whole entry): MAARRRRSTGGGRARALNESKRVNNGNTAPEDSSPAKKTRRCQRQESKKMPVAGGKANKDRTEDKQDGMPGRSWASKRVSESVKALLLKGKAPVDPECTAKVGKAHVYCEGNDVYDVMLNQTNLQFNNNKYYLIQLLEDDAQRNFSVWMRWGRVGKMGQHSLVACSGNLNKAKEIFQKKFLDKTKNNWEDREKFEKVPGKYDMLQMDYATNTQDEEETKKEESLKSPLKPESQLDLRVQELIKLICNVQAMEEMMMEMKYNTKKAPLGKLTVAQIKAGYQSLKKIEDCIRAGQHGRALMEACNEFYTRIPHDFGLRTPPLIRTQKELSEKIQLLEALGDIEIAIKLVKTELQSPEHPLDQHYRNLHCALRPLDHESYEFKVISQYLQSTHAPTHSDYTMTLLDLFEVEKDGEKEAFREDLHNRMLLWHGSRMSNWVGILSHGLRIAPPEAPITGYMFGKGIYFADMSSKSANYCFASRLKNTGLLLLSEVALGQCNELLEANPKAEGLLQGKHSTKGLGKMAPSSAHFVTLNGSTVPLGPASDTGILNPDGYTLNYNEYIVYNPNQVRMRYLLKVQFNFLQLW

For HPF1 (from UniProt Q9NWY4), the Kd (PARP1 (Homo sapiens)) is given as > 3000 nM and 790 nM and the Kd (PARP2 (Homo sapiens)) is given as 280 nM.

B1: histone PARylation factor 1 (HPF1), recombinant human (natural protein)
chain: MVGGGGKRRPGGEGPQCEKTTDVKKSKFCEADVSSDLRKEVENHYKLSLPEDFYHFWKFCEELDPEKPSDSLSASLGLQLVGPYDILAGKHKTKKKSTGLNFNLHWRFYYDPPEFQTIIIGDNKTQYHMGYFRDSPDEFPVYVGINEAKKNCIIVPNGDNVFAAVKLFLTKKLREITDKKKINLLKNIDEKLTEAARELGYSLEQRTVKMKQRDKKVVTKTFHGAGLVVPVDKNDVGYRELPETDADLKRICKTIVEAASDEERLKAFAPIQEMMTFVQFANDECDYGMGLELGMDLFCYGSHYFHKVAGQLLPLAYNLLKRNLFAEIIEEHLANRSQENIDQLAA
Molecule B1 has a DNA-independent autoPARylation level of PARP1 (500 nM, 1 uM [32P]NAD+, no DNA or NCP) with HPF1 from 60 nM to 16 uM, relative to no HPF1; maximal effect [1] of 1.6 fold and a DNA-independent autoPARylation level of PARP2 (500 nM, 1 uM [32P]NAD+, no DNA or NCP) with HPF1 from 60 nM to 16 uM, relative to no HPF1; maximal effect (at a 4-fold excess of HPF1) [2] of 2.4 fold.
